# Values quoted from earlier work, collected in patent US20040014652A1, “Tumor activated prodrug compounds and methods of making and using the same” (priority 2000, published 2004).
# Experiments:
# [1] = human, in vivo
# [2] = system: tumors; conditions: mice
substance,measurement,setting,value
TNFα,half-life,[1],20 min
same,dose required for tumor regression,[2],approximately 400 μg/kg
